Assay results as given in patent US6677433B2 (The Regents of the University of California, priority 2001, dated 2004).

Experiments:
NADP/thioredoxin system = NADP/thioredoxin system (Escherichia coli, UniProt P0AA25)
Description: Direct reduction of the proteins under study was determined by a modification of the method of Crawford et al. (Crawford, N. A. et al. (1989), Arch. Biochem. Biophys. 271:223-239). The reaction was carried out in 100 mM potassium phosphate buffer, pH 7.1, containing 10 mM EDTA and 16% glycerol in a final volume of 0.1 ml. As indicated, 0.7 μg (0.1 μM) NTR and 1 μg (0.8 μM) thioredoxin (both routinely from E. coli were added to 70 μl of the buffer solution containing 1 mM NADPH and 10 μg (2 to 17 μM) of target protein. When thioredoxin was reduced by dithiothreitol (DTT, 0.5 mM), NADPH and NTR were omitted. Assays with reduced glutathione were performed similarly, but at a final concentration of 1 mM. After incubation for 20 min, 100 nmoles of mBBr were added and the reaction was continued for another 15 min. To stop the reaction and derivatize excess mBBr, 10 μl of 10% SDS and 10 μl of 100 mM β-mercaptoethanol were added and the samples were then applied to the gels. In the case of reduction by glutaredoxin, the thioredoxin and NTR were replaced by 1 μg (0.8 μM) E. coli glutaredoxin, 1.4 μg (0.14 μM) glutathione reductase purified from spinach leaves (Florencio, F. J. et al. (1988), Arch. Biochem. Biophys. 266:496-507) and 1.5 mM NADPH was used.

trypsin = target: T1, trypsin (Bos taurus, UniProt P00760); test: Trypsin inhibition assay after reduction of the inhibitors; type: biochemical
T1 construct: purchased Sigma Chemical Co. (St. Louis, Mo.) T8640
T1 sequence (P00760 24-246): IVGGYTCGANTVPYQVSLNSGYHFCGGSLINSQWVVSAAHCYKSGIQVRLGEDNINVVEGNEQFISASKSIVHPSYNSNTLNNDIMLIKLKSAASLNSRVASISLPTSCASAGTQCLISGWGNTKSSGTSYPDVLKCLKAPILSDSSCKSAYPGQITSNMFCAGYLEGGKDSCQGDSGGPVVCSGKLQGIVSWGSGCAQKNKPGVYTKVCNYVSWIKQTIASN
Description: Unless indicated, the reduction of the trypsin inhibitors (0.4 mg/ml) was carried out in 0.1 ml of 20 mM sodium phosphate buffer, pH 7.9 containing 10 mM EDTA at 30° C. for 2 hours. The concentrations of thioredoxin, NTR, and NADPH were 0.024 mg/ml, 0.02 mg/ml, and 0.25 mM, respectively. […] Following reduction, aliquots of the inhibitor mixture were withdrawn either for determination of trypsin inhibitory activity or proteolytic susceptibility. In the subtilisin tests, the inhibitor mixture (50 μl) was directly mixed with subtilisin and incubated at room temperature for 1 hour. With the wheat protease preparation, the pH of the inhibitor mixture (50 μL) was first adjusted to 4.7 by mixing with 35 μl of 200 mM sodium acetate, pH 4.6; 10 μl of the wheat protease preparation was then added and incubation was continued for 2 hours at 37° C. To stop digestion with subtilisin, 2 μl of 100 mM phenylmethylsulfonyl fluoride (PMSF) and 10 μl of 10% SDS were added to the digestion mixture. With the plant protease preparation, digestion was stopped by adding an equal volume of SDS sample buffer [0.125 M Tris-HCl, pH 6.8, 4% (w/v) SDS, 20% (v/v) glycerol, 10% (v/v) β-mercaptoethanol, and 0.02% (w/v) bromophenol blue]. Proteolytic products were analyzed by electrophoresis with 12% or 16% SDS polyacrylamide slab gels (Laemmli, 1970). The dried slab gels were scanned with a laser densitometer (Pharmacia-LKB UltraScan XL) and the peak area of the KTI or BBTI protein band was obtained by integration with a Pharmacia GelScan XL software program.
Thioredoxin and NTR were assayed as previously described by Florencio et al. (1988). Trypsin activity was measured in 50 mM Tris-HCl, pH 7.9, by following the increase in absorbance at 253 nm with N-benzoyl-L-arginine ethyl ester as substrate (Mundy et al., 1984) or by the release of azo dye into the trichloroacetic acid (TCA)-soluble fraction from azocasein substrate (see below). For trypsin inhibition assays, trypsin (5 to 10 μg) was preincubated with appropriate amounts of KTI or BBTI for 5 minutes at room temperature in 50 mM Tris-HCl, pH 7.9 and proteolytic activity was then determined. While the two substrates yielded similar data, results are presented with only one substrate.
To determine the consequence of reduction by thioredoxin, the trypsin inhibitory activity of the oxidized and reduced forms of KTI and BBTI was compared. […] Similar results were obtained with DTT, a nonphysiological substitute for thioredoxin, and with thioredoxin reduced by lipoic acid, a naturally occurring dithiol.

[1] = tested on: wheat protease preparation; test: Proteolysis by a plant protease preparation (SDS-PAGE, laser densitometer); type: biochemical
Description: The endosperm (10-15 g fresh weight) isolated from 5-day germinated wheat seeds by excising the roots and shoots was extracted for 30 minutes at 4° C. with 5 volumes of 200 mM sodium acetate, pH 4.6, containing 10 mM β-mercaptoenthanol. The homogenate was centrifuged for 20 minutes at 48,000 g, 4° C. The pellet was discarded and the supernatant fluid was fractionated with 30-70% ammonium sulfate. This fraction, which represented the protease preparation, was resuspended in a minimum volume of 20 mM sodium acetate, pH 4.6, containing 10 mM β-mercaptoenthanol, and dialyzed against this buffer overnight at 4° C.
Unless indicated, the reduction of the trypsin inhibitors (0.4 mg/ml) was carried out in 0.1 ml of 20 mM sodium phosphate buffer, pH 7.9 containing 10 mM EDTA at 30° C. for 2 hours. […] Proteolytic products were analyzed by electrophoresis with 12% or 16% SDS polyacrylamide slab gels (Laemmli, 1970). […]
To test whether the reduced forms of KTI and BBTI show decreased stability to proteases other than trypsin, both the reduced and oxidized forms of KTI and BBTI were incubated with a wheat protease preparation or with subtilisin and the proteolytic products were analyzed by SDS-PAGE. The extent of proteolysis was determined by measuring the abundance of intact protein on SDS gels by laser densitometer. […]

B1: Soybean Kunitz: Kunitz soybean trypsin inhibitor (protein, UniProt P01070 25-205, looked up)
Trypsin inhibitor A: DFVLDNEGNPLENGGTYYILSDITAFGGIRAAPTGNERCPLTVVQSRNELDKGIGTIISSPYRIRFIAEGHPLSLKFDSFAVIMLCVGIPTEWSVVEDLPEGPAVKIGENKDAMDGWFRLERVSDDEFNNYKLVFCPQQAEDDKCGDIGISIDHDDGTRRLVVSKNKPLVVQFQKLDKESL
% Reduction After 20 min (NADP/thioredoxin system): 14%
% Reduction After 120 min (NADP/thioredoxin system): 22%
increase in trypsin activity effected by the NADP/thioredoxin system (trypsin): 3 fold
Relative Trypsin Activity, inhibitor Reduced by DTT (trypsin; DTT 1 mM, 30° C., 1 hour, no inhibitor = 100): 68.6
Relative Trypsin Activity, inhibitor Reduced by NTS (trypsin; E. coli NTS, 30° C., 2 hours, no inhibitor = 100): 55.6
Relative Trypsin Activity, inhibitor Reduced by LA/Trx h (trypsin; lipoic acid 0.4 mM and wheat thioredoxin h, 30° C., 1 hour): 40.5
Relative Trypsin Activity, inhibitor Oxidized (trypsin; no inhibitor = 100, N-benzoyl-L-arginine ethyl ester): 17.0
degraded by wheat protease preparation [1]: about 80%
